Assay results: paper PMC9877012

How the values were obtained:
[1] = molecular target: Poly-L-lysine hydrobromide (MW, 70,000-150,000 Da); assay: co-sedimentation; precipitation rate of LOX: LOX mixed with PLL, centrifuged at 18,000 x g for 20 min at 25 °C, LOX in the supernatant by absorbance at 280 nm; 5 µM LOX, 1 mM PLL, 5-20 mM (NH4)2SO4
[2] = molecular target: Poly-L-lysine hydrobromide (MW, 70,000-150,000 Da)

B1: L-lactate oxidase (enzyme)
chain: MNNNDIEYNAPSEIKYIDVVNTYDLEEEASKVVPHGGFNYIAGASGDEWTKRANDRAWKHKLLYPRLAQDVEAPDTSTEILGHKIKAPFIMAPIAAHGLAHTTKEAGTARAVSEFGTIMSISAYSGATFEEISEGLNGGPRWFQIYMAKDDQQNRDILDEAKSDGATAIILTADSTVSGNRDRDVKNKFVYPFGMPIVQRYLRGTAEGMSLNNIYGASKQKISPRDIEEIAGHSGLPVFVKGIQHPEDADMAIKRGASGIWVSNHGARQLYEAPGSFDTLPAIAERVNKRVPIVFDSGVRRGEHVAKALASGADVVALGRPVLFGLALGGWQGAYSVLDYFQKDLTRVMQLTGSQNVEDLKGLDLFDNPYGYEY
- percent of LOX in the droplets [1]: 90%
- relative enzyme activity of LOX (0.1 µM) with 0.02 mM PLL against LOX without PLL, 0-10 mM (NH4)2SO4 (about 15 times without and about five times with 10 mM ammonium sulfate) [2]: 15 fold
